One test addresses SmN-SNAPIN (human) (UniProt O95295). In words: split reporter (BiFC, NanoBiT).
A further test has as its target T1, Flag-M1 (influenza A virus A/WSN/33 (H1N1), UniProt P05777 1-252).
T1 construct: also called Flag-tagged M1; M1 protein; not shown: Flag, N-terminal, kept
The test is described as follows: pull-down. The following applies: both partners purified.

In the next test the target is T2, SmN-SNAPIN (human, UniProt O95295 1-136).
T2 construct: also called SNAPIN-SmBiT; not shown: SmBiT, N-terminal, kept
T2 sequence (looked up): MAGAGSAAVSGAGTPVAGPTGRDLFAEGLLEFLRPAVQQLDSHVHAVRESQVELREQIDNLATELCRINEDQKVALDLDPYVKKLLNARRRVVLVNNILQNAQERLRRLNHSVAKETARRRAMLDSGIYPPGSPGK
The test is described as follows: split reporter (BiFC, NanoBiT). The settings on record: partners not purified.

T1 sequence (P05777 whole entry): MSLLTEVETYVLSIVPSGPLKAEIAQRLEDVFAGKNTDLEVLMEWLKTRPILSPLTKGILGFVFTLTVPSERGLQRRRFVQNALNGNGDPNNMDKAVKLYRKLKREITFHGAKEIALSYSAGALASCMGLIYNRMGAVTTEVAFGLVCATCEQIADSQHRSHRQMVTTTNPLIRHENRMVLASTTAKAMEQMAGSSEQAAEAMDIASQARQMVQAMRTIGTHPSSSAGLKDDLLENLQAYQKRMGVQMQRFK

As for LgN-NS2 (natural protein), the fold signal increase relative to the negative control with SmN-SNAPIN (human) worked out at 2.37 fold.

B1: GST-SNAPIN (natural protein, human, UniProt O95295 1-136, looked up)
chain: MAGAGSAAVSGAGTPVAGPTGRDLFAEGLLEFLRPAVQQLDSHVHAVRESQVELREQIDNLATELCRINEDQKVALDLDPYVKKLLNARRRVVLVNNILQNAQERLRRLNHSVAKETARRRAMLDSGIYPPGSPGK
notes: also called GST-tagged SNAPIN
Turning to B1, the binding result with Flag-M1 was “binds”.

B2: LgN-M2 (natural protein)
chain: MSLLTEVETPIRNEWGCRCNDSSDPLVIAANIIGILHLILWILDRLFFKCIYRRFKYGLKRGPSTEGVPESMREEYRKEQQNAVDVDDGHFVNIELE
notes: also called matrix protein 2; not shown: LgBiT, N-terminal, kept
Take B2: the “fold signal increase relative to the negative control” value in the test with SmN-SNAPIN stood at 8.62 fold.
